As usually defined, the Kd is the constant that tells how readily two partners part at equilibrium. Usually koff stands for a measure of how fast the partners let go of each other. Read a high koff as a short-lived complex. What is called kon is a measure of how fast the partners come together. A lower kon goes with slower complex formation.

The values that follow come from patent publication US20210236649A1 (ICONIC THERAPEUTICS, published 2021).

B1: Lipidated rabbit tissue factor (receptor, UniProt P24055 33-292, looked up)
chain: ADTTGRAYNLTWKSTNFKTILEWEPKSIDHVYTVQISTRLENWKSKCFLTAETECDLTDEVVKDVGQTYMARVLSYPARNGNTTGFPEEPPFRNSPEFTPYLDTNLGQPTIQSFEQVGTKLNVTVQDARTLVRRNGTFLSLRAVFGKDLNYTLYYWRASSTGKKTATTNTNEFLIDVDKGENYCFSVQAVIPSRKRKQRSPESLTECTSREQGRAREMFFIIGAVVVVALLIIVLSVTVYKCRKARAGPSGKESSPLNIA
notes: Amine-coupled as a proteoliposome to flow cell 2 of the Biacore chip; Also used to start thrombin generation in rabbit plasma; also called rTF; rabbit TF
B2: Human Factor VIIa (human plasma FVIIa) (enzyme, UniProt P08709 61-466, looked up)
chain: ANAFLEELRPGSLERECKEEQCSFEEAREIFKDAERTKLFWISYSDGDQCASSPCQNGGSCKDQLQSYICFCLPAFEGRNCETHKDDQLICVNENGGCEQYCSDHTGTKRSCRCHEGYSLLADGVSCTPTVEYPCGKIPILEKRNASKPQGRIVGGKVCPKGECPWQVLLLVNGAQLCGGTLINTIWVVSAAHCFDKIKNWRNLIAVLGEHDLSEHDGDEQSRRVAQVIIPSTYVPGTTNHDIALLRLHQPVVLTDHVVPLCLPERTFSERTLAFVRFSLVSGWGQLLDRGATALELMVLNVPRLMTQDCLQQSRKVGDSPNITEYMFCAGYSDGSKDSCKGDSGGPHATHYRGTWYLTGIVSWGQGCATVGHFGVYTRVSQYIEWLQKLMRSEPRPGVLLRAPFP
notes: also called hFVIIa; Human FVIIa

Assay [1] has as its target B2. In words: SPR (Biacore 3000), lipidated rabbit TF amine-coupled, analyte 0-500 nM, 37 C. On the procedure: (§1) The GE procedure for proteoliposome immobilization (amine coupling) protocol was used to coat PS/PC/rTF on flow cell 2, and PS/PC/hTF on flow cell 3. Flow cells were equilibrated with running buffer (15 mM Hepes, 150 mM NaCl, 5 mM CaCl2, 25 mM Arginine, 0.01% Tween 80, pH7.4) at a flow rate of 5 μL/min. Kinetic analyses were performed at 37° C. by flowing consecutively increasing concentrations of each analyte […] in the running buffer (15 mM. HEPES, 150 mM NaCl, 5 mM CaCl2, 25 mM Arginine, 0.01% Tween 80, pH 7.4) over the sensor chip for 5 min followed by a 10 min dissociation period at a flow rate of 30 μL/min in parallel.
(§2) Analyte binding to the lipidated TF was determined by subtracting the RU values noted in the reference flow cell 1 from flow cell 2 and 3. Binding of analytes to the TFs was monitored in real time to obtain on (ka) and off (kd) rates. The equilibrium dissociation constant (KD) was calculated from the observed ka and kd.
(§3) Based on the saturation concentration of the analyte, binding analysis was performed using saturating analyte concentrations of 0-500 nM for rabbit TF and 0-50 nM for human TF. Chi squared (χ²) analysis was carried out between the actual sensorgram and the calculated on- and off-rates to determine the accuracy of the analysis.
(Surface plasmon resonance follows binding to a sensor surface in real time, without labels.)

For assay [2], the target named is B2. In words: SPR (Biacore 3000), lipidated rabbit TF on chip. How it is done: as §1, §2, §3
Assay [3] concerns the target B1. In words: SPR (Biacore). On the procedure:
as §1, §2

In assay [1], B1 registered a Ka of 2.5e+07 M⁻¹, a Kd of 40 nM, a koff of 0.0014 s⁻¹ and a kon of 34000 M⁻¹ s⁻¹. This molecule also had a dissociation constant Kd in assay [2] of 39.5 nM.

Take B2: the “fold lower affinity than to lipidated hTF” value in assay [3] is around 10 fold.
